Assay: RP-HPLC: insulin apparent solubility / percent recovery
Details: for Solubility of Lispro, % remaining of the original concentration: 7 days at 2-8° C.
Outline: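 Vial samples withdrawn at each time point, centrifuged, held at 4 °C, run in duplicate by RP-HPLC. Apparent solubility = combined insulin main and desamido peak areas as percent versus standards/initial formulation; purity = main insulin peak as percent of all insulin species.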

With “insulin Lispro: insulin analog LysB28, ProB29; SEQ ID NO:103 and 148” the “Solubility of Lispro, % remaining of the original concentration” value (0.2% methylparaben + […] m-cresol, pH 6.6, NaCl 50 mM) was 42.0%, the “Solubility of Lispro, % remaining of the original concentration” value (0.2% methylparaben + […] m-cresol, pH 6.6, NaCl 80 mM) was 28.2% and the “Solubility of Lispro, % remaining of the original concentration” value (0.2% methylparaben + […] m-cresol, pH 6.6, NaCl 110 mM) was 24.1%. The “Solubility of Lispro, % remaining of the original concentration” value (0.2% methylparaben + […] m-cresol, pH 6.6, NaCl 140 mM) was 25.9%, the “Solubility of Lispro, % remaining of the original concentration” value (0.2% methylparaben + […] m-cresol, pH 6.8, NaCl 50 mM) was 82.3% and the “Solubility of Lispro, % remaining of the original concentration” value (0.2% methylparaben + […] m-cresol, pH 6.8, NaCl 80 mM) was 62.6%. The “Solubility of Lispro, % remaining of the original concentration” value (0.2% methylparaben + […] m-cresol, pH 6.8, NaCl 110 mM) was 47.8%, the “Solubility of Lispro, % remaining of the original concentration” value (0.2% methylparaben + […] m-cresol, pH 6.8, NaCl 140 mM) was 42.0% and the “Solubility of Lispro, % remaining of the original concentration” value (0.2% methylparaben + […] m-cresol, pH 7.0, NaCl 50 mM) was 95.3%. The “Solubility of Lispro, % remaining of the original concentration” value (0.2% methylparaben + […] m-cresol, pH 7.0, NaCl 80 mM) was 98.1%, the “Solubility of Lispro, % remaining of the original concentration” value (0.2% methylparaben + […] m-cresol, pH 7.0, NaCl 110 mM) was 94.1% and the “Solubility of Lispro, % remaining of the original concentration” value (0.2% methylparaben + […] m-cresol, pH 7.0, NaCl 140 mM) was 65.6%. The “Solubility of Lispro, % remaining of the original concentration” value (0.2% methylparaben + […] m-cresol, pH 7.2, NaCl 50 mM) was 95.7%, the “Solubility of Lispro, % remaining of the original concentration” value (0.2% methylparaben + […] m-cresol, pH 7.2, NaCl 80 mM) was 97.9% and the “Solubility of Lispro, % remaining of the original concentration” value (0.2% methylparaben + […] m-cresol, pH 7.2, NaCl 110 mM) was 99.6%. The “Solubility of Lispro, % remaining of the original concentration” value (0.2% methylparaben + […] m-cresol, pH 7.2, NaCl 140 mM) was 98.0%, the “Solubility of Lispro, % remaining of the original concentration” value (0.2% methylparaben + […] m-cresol, pH 7.4, NaCl 50 mM) was 95.6% and the “Solubility of Lispro, % remaining of the original concentration” value (0.2% methylparaben + […] m-cresol, pH 7.4, NaCl 80 mM) was 98.2%. The “Solubility of Lispro, % remaining of the original concentration” value (0.2% methylparaben + […] m-cresol, pH 7.4, NaCl 110 mM) was 99.9%, the “Solubility of Lispro, % remaining of the original concentration” value (0.2% methylparaben + […] m-cresol, pH 7.4, NaCl 140 mM) was 98.5% and the “Solubility of Lispro, % remaining of the original concentration” value (0.2% methylparaben + […] m-cresol, pH 7.6, NaCl 50 mM) was 95.7%. For the same substance, the “Solubility of Lispro, % remaining of the original concentration” value (0.2% methylparaben + […] m-cresol, pH 7.6, NaCl 80 mM) was 98.3%, the “Solubility of Lispro, % remaining of the original concentration” value (0.2% methylparaben + […] m-cresol, pH 7.6, NaCl 110 mM) was 100.2% and the “Solubility of Lispro, % remaining of the original concentration” value (0.2% methylparaben + […] m-cresol, pH 7.6, NaCl 140 mM) was 98.8%. For the same substance, the “Solubility of Lispro, % remaining of the original concentration” value (0.2% phenol + […] m-cresol, pH 6.6, NaCl 50 mM) was 52.8%, the “Solubility of Lispro, % remaining of the original concentration” value (0.2% phenol + […] m-cresol, pH 6.6, NaCl 80 mM) was 32.8% and the “Solubility of Lispro, % remaining of the original concentration” value (0.2% phenol + […] m-cresol, pH 6.6, NaCl 110 mM) was 26.0%. The “Solubility of Lispro, % remaining of the original concentration” value (0.2% phenol + […] m-cresol, pH 6.8, NaCl 50 mM) was 91.4%, the “Solubility of Lispro, % remaining of the original concentration” value (0.2% phenol + […] m-cresol, pH 6.8, NaCl 80 mM) was 65.1% and the “Solubility of Lispro, % remaining of the original concentration” value (0.2% phenol + […] m-cresol, pH 6.8, NaCl 110 mM) was 44.9%. For the same substance, the “Solubility of Lispro, % remaining of the original concentration” value (0.2% phenol + […] m-cresol, pH 6.8, NaCl 140 mM) was 40.4%, the “Solubility of Lispro, % remaining of the original concentration” value (0.2% phenol + […] m-cresol, pH 7.0, NaCl 50 mM) was 97.4% and the “Solubility of Lispro, % remaining of the original concentration” value (0.2% phenol + […] m-cresol, pH 7.0, NaCl 80 mM) was 95.5%. The “Solubility of Lispro, % remaining of the original concentration” value (0.2% phenol + […] m-cresol, pH 7.0, NaCl 110 mM) was 75.2%, the “Solubility of Lispro, % remaining of the original concentration” value (0.2% phenol + […] m-cresol, pH 7.0, NaCl 140 mM) was 65.3% and the “Solubility of Lispro, % remaining of the original concentration” value (0.2% phenol + […] m-cresol, pH 7.2, NaCl 50 mM) was 97.6%. The “Solubility of Lispro, % remaining of the original concentration” value (0.2% phenol + […] m-cresol, pH 7.2, NaCl 80 mM) was 97.4%, the “Solubility of Lispro, % remaining of the original concentration” value (0.2% phenol + […] m-cresol, pH 7.2, NaCl 110 mM) was 95.2% and the “Solubility of Lispro, % remaining of the original concentration” value (0.2% phenol + […] m-cresol, pH 7.2, NaCl 140 mM) was 90.8%. For the same substance, the “Solubility of Lispro, % remaining of the original concentration” value (0.2% phenol + […] m-cresol, pH 7.4, NaCl 50 mM) was 97.7%, the “Solubility of Lispro, % remaining of the original concentration” value (0.2% phenol + […] m-cresol, pH 7.4, NaCl 80 mM) was 97.6% and the “Solubility of Lispro, % remaining of the original concentration” value (0.2% phenol + […] m-cresol, pH 7.4, NaCl 110 mM) was 97.0%. For the same substance, the “Solubility of Lispro, % remaining of the original concentration” value (0.2% phenol + […] m-cresol, pH 7.4, NaCl 140 mM) was 96.9%, the “Solubility of Lispro, % remaining of the original concentration” value (0.2% phenol + […] m-cresol, pH 7.6, NaCl 50 mM) was 97.5% and the “Solubility of Lispro, % remaining of the original concentration” value (0.2% phenol + […] m-cresol, pH 7.6, NaCl 80 mM) was 97.7%. For the same substance, the “Solubility of Lispro, % remaining of the original concentration” value (0.2% phenol + […] m-cresol, pH 7.6, NaCl 110 mM) was 97.3%, the “Solubility of Lispro, % remaining of the original concentration” value (0.2% phenol + […] m-cresol, pH 7.6, NaCl 140 mM) was 96.8% and the “time insulin Lispro stable (soluble)” value (2-8° C., pH 7.0, 50 mM NaCl) was 5 months. For the same substance, the Solubility (2-8° C., pH 7.0, after 1 week at 80, 110 or 140 mM NaCl) was “below 65%”, the “time insulin Lispro stable (soluble)” value (2-8° C., pH 7.6, 140 mM NaCl) was 2 weeks and the “time insulin Lispro stable (soluble)” value (2-8° C., pH 7.6, 50 and 80 mM NaCl, […] m-cresol, […] phenol) was “at least 12 months”. The “Solubility of Lispro, % remaining of the original concentration” value ([…] phenol + […] m-cresol, pH 6.6, NaCl 50 mM) was 60.3%, the “Solubility of Lispro, % remaining of the original concentration” value ([…] phenol + […] m-cresol, pH 6.6, NaCl 80 mM) was 43.3% and the “Solubility of Lispro, % remaining of the original concentration” value ([…] phenol + […] m-cresol, pH 6.6, NaCl 110 mM) was 24.2%. For the same substance, the “Solubility of Lispro, % remaining of the original concentration” value ([…] phenol + […] m-cresol, pH 6.6, NaCl 140 mM) was 27.7%, the “Solubility of Lispro, % remaining of the original concentration” value ([…] phenol + […] m-cresol, pH 6.8, NaCl 50 mM) was 93.6% and the “Solubility of Lispro, % remaining of the original concentration” value ([…] phenol + […] m-cresol, pH 6.8, NaCl 80 mM) was 60.8%. The “Solubility of Lispro, % remaining of the original concentration” value ([…] phenol + […] m-cresol, pH 6.8, NaCl 110 mM) was 44.9%, the “Solubility of Lispro, % remaining of the original concentration” value ([…] phenol + […] m-cresol, pH 6.8, NaCl 140 mM) was 35.9% and the “Solubility of Lispro, % remaining of the original concentration” value ([…] phenol + […] m-cresol, pH 7.0, NaCl 50 mM) was 98.7%. The “Solubility of Lispro, % remaining of the original concentration” value ([…] phenol + […] m-cresol, pH 7.0, NaCl 80 mM) was 96.4%, the “Solubility of Lispro, % remaining of the original concentration” value ([…] phenol + […] m-cresol, pH 7.0, NaCl 110 mM) was 77.0% and the “Solubility of Lispro, % remaining of the original concentration” value ([…] phenol + […] m-cresol, pH 7.0, NaCl 140 mM) was 61.2%. For the same substance, the “Solubility of Lispro, % remaining of the original concentration” value ([…] phenol + […] m-cresol, pH 7.2, NaCl 50 mM) was 100.5%, the “Solubility of Lispro, % remaining of the original concentration” value ([…] phenol + […] m-cresol, pH 7.2, NaCl 80 mM) was 99.2% and the “Solubility of Lispro, % remaining of the original concentration” value ([…] phenol + […] m-cresol, pH 7.2, NaCl 110 mM) was 97.3%. The “Solubility of Lispro, % remaining of the original concentration” value ([…] phenol + […] m-cresol, pH 7.2, NaCl 140 mM) was 93.1%, the “Solubility of Lispro, % remaining of the original concentration” value ([…] phenol + […] m-cresol, pH 7.4, NaCl 50 mM) was 100.8% and the “Solubility of Lispro, % remaining of the original concentration” value ([…] phenol + […] m-cresol, pH 7.4, NaCl 80 mM) was 101.8%. The “Solubility of Lispro, % remaining of the original concentration” value ([…] phenol + […] m-cresol, pH 7.4, NaCl 110 mM) was 100.7%, the “Solubility of Lispro, % remaining of the original concentration” value ([…] phenol + […] m-cresol, pH 7.4, NaCl 140 mM) was 98.4% and the “Solubility of Lispro, % remaining of the original concentration” value ([…] phenol + […] m-cresol, pH 7.6, NaCl 50 mM) was 100.9%. For the same substance, the “Solubility of Lispro, % remaining of the original concentration” value ([…] phenol + […] m-cresol, pH 7.6, NaCl 80 mM) was 102.1%, the “Solubility of Lispro, % remaining of the original concentration” value ([…] phenol + […] m-cresol, pH 7.6, NaCl 110 mM) was 101.6% and the “Solubility of Lispro, % remaining of the original concentration” value ([…] phenol + […] m-cresol, pH 7.6, NaCl 140 mM) was 101.3%.
